Measured values: US20160264677A1 (GANYMED PHARMACEUTICALS, published 2016)
Where a chain is given by its changes, count along the chain named. Names and notes keep the numbering of the source.

Assays:
human CLDN4 (claudin 4) [1] = biological target: T1, human CLDN4 (claudin 4) (human, UniProt O14493 1-209); assay: flow cytometry, HEK293 cells stably expressing the claudin
T1 sequence: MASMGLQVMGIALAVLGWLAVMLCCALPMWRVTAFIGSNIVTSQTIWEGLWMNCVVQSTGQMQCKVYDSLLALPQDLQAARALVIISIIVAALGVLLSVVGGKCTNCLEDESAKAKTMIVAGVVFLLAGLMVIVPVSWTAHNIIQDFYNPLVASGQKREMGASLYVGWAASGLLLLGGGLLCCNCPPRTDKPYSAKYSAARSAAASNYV
Description: (§1) To test the specificities and affinities of CLDN6-specific chimeric monoclonal antibodies binding to HEK293 cells stably transfected with CLDN3, 4, 6 or 9, respectively, and tumor cell lines that endogenously express CLDN6 was analyzed by flow cytometry. Therefore, cells were harvested with 0.05% Trypsin/EDTA, washed with FACS buffer (PBS containing 2% FCS and 0.1% sodium azide) and resuspended in FACS buffer at a concentration of 2×10⁶ cells/ml. 100 μl of the cell suspension were incubated with the appropriate antibody at indicated concentrations for 60 min at 4° C. A chimeric cross-reactive antibody (chimAB 5F2D2) was used to detect CLDN6 and CLDN9 expression. […] The cells were washed twice and resuspended in FACS buffer. The binding was analyzed by flow cytometry using a BD FACSArray.

human CLDN3 (claudin 3) [2] = biological target: T2, human CLDN3 (claudin 3) (human, UniProt O15551 1-220); assay: as above
T2 sequence: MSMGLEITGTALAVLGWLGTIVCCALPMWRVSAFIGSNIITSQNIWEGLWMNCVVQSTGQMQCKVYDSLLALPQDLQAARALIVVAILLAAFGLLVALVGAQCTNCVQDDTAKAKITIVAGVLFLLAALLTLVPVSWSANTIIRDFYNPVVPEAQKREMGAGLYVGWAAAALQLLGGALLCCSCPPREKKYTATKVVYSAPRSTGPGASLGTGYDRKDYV
Description: as §1

[3] = biological target: T3, human CLDN6 (claudin 6), full length (human, UniProt P56747 1-220); assay: flow cytometry, saturation binding on HEK293 cells stably expressing human CLDN6, median fluorescence
T3 construct: denatured cell lysate in the Western blot; also called NP 067018.2
T3 sequence: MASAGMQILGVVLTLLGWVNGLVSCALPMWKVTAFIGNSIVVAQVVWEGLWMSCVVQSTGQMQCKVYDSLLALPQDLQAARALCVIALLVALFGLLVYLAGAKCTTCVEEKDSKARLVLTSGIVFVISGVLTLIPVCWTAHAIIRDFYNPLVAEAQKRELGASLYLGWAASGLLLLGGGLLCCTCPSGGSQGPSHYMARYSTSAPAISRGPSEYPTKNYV
Description: (§2) The binding of CLDN6-specific chimeric monoclonal antibodies to cells expressing the target was analyzed by flow cytometry. Therefore, cells were harvested with 0.05% Trypsin/EDTA, washed with FACS buffer (PBS containing 2% FCS and 0.1% sodium azide) and resuspended in FACS buffer at a concentration of 2×10⁶ cells/ml. 100 pl of the cell suspension were incubated with the appropriate antibody at indicated concentrations for 30 min at 4° C. […] The cells were washed twice and resuspended in FACS buffer. The binding was analyzed by flow cytometry using a BD FACSArray.

human CLDN9 (claudin 9) [4] = biological target: T4, human CLDN9 (claudin 9) (human, UniProt O95484 1-217); assay: flow cytometry, HEK293T cells transiently co-transfected with the claudin and a fluorescence reporter
T4 sequence: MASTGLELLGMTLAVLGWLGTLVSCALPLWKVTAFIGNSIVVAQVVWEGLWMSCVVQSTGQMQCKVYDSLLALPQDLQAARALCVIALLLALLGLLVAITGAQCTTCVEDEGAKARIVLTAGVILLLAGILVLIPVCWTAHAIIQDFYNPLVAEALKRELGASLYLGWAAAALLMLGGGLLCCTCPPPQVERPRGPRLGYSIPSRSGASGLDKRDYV
Description: (§3) To test the binding of monoclonal antibodies to CLDN6 and its homologous HEK293T cells were transiently transfected with the corresponding claudin-coding plasmid and the expression was analyzed by flow cytometry. In order to differentiate between transfected and non-transfected cells, HEK293T cells were co-transfected with a fluorescence marker as a reporter. 24 h post transfection cells were harvested with 0.05% trypsin/EDTA, washed with FACS buffer (PBS containing 2% FCS and 0.1% sodium azide) and resuspended in FACS buffer at a concentration of 2×10⁶ cells/ml. 100 μl of the cell suspension were incubated with the appropriate antibody at indicated concentrations for 30 min at 4° C. […] The cells were washed twice and resuspended in FACS buffer. The binding was analyzed by flow cytometry using a BD FACSArray. The expression of the fluorescence marker was plotted on the horizontal axis against the antibody binding on the vertical axis.

human CLDN4 (claudin 4) [5] = biological target: T1, human CLDN4 (claudin 4); assay: as above
Description: as §3

human CLDN3 (claudin 3) [6] = biological target: T2, human CLDN3 (claudin 3); assay: as above
Description: as §3

human CLDN9 (claudin 9) [7] = biological target: T4, human CLDN9 (claudin 9); assay: flow cytometry, HEK293 cells stably expressing the claudin
Description: as §1

[8] = biological target: T3, human CLDN6 (claudin 6), full length; assay: flow cytometry, NEC8 testicular cancer cells endogenously expressing human CLDN6
Description: as §2

[9] = biological target: T3, human CLDN6 (claudin 6), full length; assay: flow cytometry on OV90 ovarian cancer cells endogenously expressing CLDN6, median fluorescence
Description: as §2

[10] = biological target: T3, human CLDN6 (claudin 6), full length; assay: flow cytometry on NEC8 testicular cancer cells endogenously expressing CLDN6, median fluorescence
Description: as §2

human CLDN9 (claudin 9) [11] = biological target: T4, human CLDN9 (claudin 9); assay: flow cytometry, HEK293T cells transiently co-transfected with the claudin and a fluorescence reporter; remark: listed apart in the source
human CLDN3 (claudin 3) [12] = biological target: T2, human CLDN3 (claudin 3); assay: as above; remark: listed apart in the source
human CLDN4 (claudin 4) [13] = biological target: T1, human CLDN4 (claudin 4); assay: as above; remark: listed apart in the source

B1: chimeric monoclonal antibody chimAB 64A (antibody, human IgG1, kappa, V domains shown)
VH: EVQLQQSGPELVKPGASMKISCKASGYSFTGYTMNWVKQSHGKNLEWIGLINPYNGGTIYNQKFKGKATLTVDKSSSTAYMELLSLTSEDSAVYYCARDYGFVLDYWGQGTTLTVSS
VL: QIVLTQSPSIMSVSPGEKVTITCSASSSVSYMHWFQQKPGTSPKLCIYSTSNLASGVPARFSGRGSGTSYSLTISRVAAEDAATYYCQQRSNYPPWTFGGGTKLEIKR
notes: Mouse/human chimeric IgG1, kappa
Human CLDN4 (claudin 4) [1]
  binding result: no binding (tested: 25 µg/ml (legend))
Human CLDN3 (claudin 3) [2]
  binding result: no binding (tested: 25 µg/ml (legend))
[3]
  EC50 (read off the curve): ~0.2 µg/mL

B2: murine monoclonal antibody muMAB 61D (antibody, mouse IgG2a, V domains shown)
VH: B1 VH with I59S, V72I, F102Y
VL: QIVLTQSPAIMSASPGEKVTITCSASSSVSYLHWFQQKPGTSPKLWVYSTSNLPSGVPARFGGSGSGTSYSLTISRMEAEDAATYYCQQRSIYPPWTFGGGTKLEIK
notes: the assignment is an inference; also called GT512muMAB 61D; DSM ACC3069
Human CLDN9 (claudin 9) [4]
  binding result: no binding (tested: 25 µg/ml (legend))
Human CLDN4 (claudin 4) [5]
  binding result: no binding (tested: 25 µg/ml (legend))
Human CLDN3 (claudin 3) [6]
  binding result: no binding (tested: 25 µg/ml (legend))

B3: murine monoclonal antibody muMAB 64A (antibody, mouse IgG2a, V domains shown)
VH: B1 VH
VL: QIVLTQSPSIMSVSPGEKVTITCSASSSVSYMHWFQQKPGTSPKLCIYSTSNLASGVPARFSGRGSGTSYSLTISRVAAEDAATYYCQQRSNYPPWTFGGGTKLEIK
notes: also called GT512muMAB 64A; DSM ACC3070
Human CLDN4 (claudin 4) [5]
  binding result: no binding (tested: 25 µg/ml (legend))
Human CLDN3 (claudin 3) [6]
  binding result: no binding (tested: 25 µg/ml (legend))

B4: chimeric monoclonal antibody chimAB 61D (antibody, human IgG1, kappa, V domains shown)
VH: B1 VH with I59S, V72I, F102Y
VL: QIVLTQSPAIMSASPGEKVTITCSASSSVSYLHWFQQKPGTSPKLWVYSTSNLPSGVPARFGGSGSGTSYSLTISRMEAEDAATYYCQQRSIYPPWTFGGGTKLEIKR
notes: as for B1
Human CLDN9 (claudin 9) [7]
  binding result: no binding (tested: 25 µg/ml (legend))
Human CLDN4 (claudin 4) [1]
  binding result: no binding (tested: 25 µg/ml (legend))
Human CLDN3 (claudin 3) [2]
  binding result: no binding (tested: 25 µg/ml (legend))

B5: chimeric monoclonal antibody mAb206-LCC (antibody, human IgG1, kappa, V domains shown)
VH: B1 VH
VL: B4 VL
notes: inferred; also called light-chain combination variant
[8]
  fold stronger binding affinity compared to chimAB 64A, mAb206-SUBG and mAb206-SUBS: 3 fold
[9]
  EC50 (read off the curve): ~0.4 µg/mL
[10]
  EC50 (read off the curve): ~0.2 µg/mL
Human CLDN9 (claudin 9) [11]
  binding result: no binding
Human CLDN3 (claudin 3) [12]
  binding result: no binding
[3]
  EC50 (read off the curve): ~0.2 µg/mL

B6: chimeric monoclonal antibody mAb206-SUBG (antibody, human IgG1, kappa, V domains shown)
VH: B1 VH
VL: B1 VL with C46G
notes: Chimeric IgG1, kappa; also called amino acid substitution variant (C46G)
[9]
  EC50 (read off the curve): ~0.5 µg/mL
[10]
  EC50 (read off the curve): ~0.5 µg/mL
Human CLDN9 (claudin 9) [11]
  binding result: no binding
Human CLDN4 (claudin 4) [13]
  binding result: no binding
Human CLDN3 (claudin 3) [12]
  binding result: no binding
[3]
  EC50 (read off the curve): ~0.2 µg/mL

B7: chimeric monoclonal antibody mAb206-SUBS (antibody, human IgG1, kappa, V domains shown)
VH: B1 VH
VL: B1 VL with C46S
notes: Chimeric IgG1, kappa; also called amino acid substitution variant (C46S)
[9]
  EC50 (read off the curve): ~0.5 µg/mL
[10]
  EC50 (read off the curve): ~0.5 µg/mL
Human CLDN9 (claudin 9) [11]
  binding result: no binding
Human CLDN4 (claudin 4) [13]
  binding result: no binding
Human CLDN3 (claudin 3) [12]
  binding result: no binding
[3]
  EC50 (read off the curve): ~0.2 µg/mL
